Source: patent publication US20220042033A1, “COMPOSITION AND METHOD FOR CONFERRING AND/OR ENHANCING TOLERANCE AGAINST HERBICIDES BY USING VARIANTS OF PPO” (FarmHannong Co., Ltd., priority 2017, published 2022)
Where a chain is given by its changes, count along the chain named. Names and notes keep the numbering of the source.

B1: R95A + I168C + I311M + L332T + M365V: MxPPO (SEQ ID NO: 3) variant (protein)
chain: MHHMPRTTGMNVAVVGGGISGLAVAHHLRSRGTDAVLLESSARLGGAVGTHALAGYLVEQGPNSFLDREPATRALAAALNLEGRIRAADPAAKRAYVYTRGRLRSVPASPPAFLASDILPLGARLRVAGELFSRRAPEGVDESLAAFGRRHLGHRATQVLLDAVQTGCYAGDVEQLSVAATFPMLVKMEREHRSLILGAIRAQKAQRQAALPAGTAPKLSGALSTFDGGLQVLIDALAASLGDAAHVGARVEGLAREDGGWRLIIEEHGRRAELSVAQVVLAAPAHATAKLLRPLDDALAALVAGIAYAPMAVVHLGFDAGTLPAPDGFGFTVPAEEQRRMLGAIHASTTFPFRAEGGRVLYSCVVGGARQPGLVEQDEDALAALAREELKALAGVTARPSFTRVFRWPLGIPQYNLGHLERVAAIDAALQRLPGLHLIGNAYKGVGLNDCIRNAAQLADALVAGNTSHAP
modifications: Synthetic (Protoporphyrinogen IX oxidase (MxPPO) of Myxococcus xanthus)
B2: R95A + I168C + A170C + I311M + L332T + M365V: MxPPO (SEQ ID NO: 3) variant (protein)
chain: B1 chain with A170C
modifications: Synthetic (Protoporphyrinogen IX oxidase (MxPPO) of Myxococcus xanthus)
B3: R95A + I168C + I311M + M365V: MxPPO (SEQ ID NO: 3) variant (protein)
chain: B1 chain with T332L
modifications: Synthetic (Protoporphyrinogen IX oxidase (MxPPO) of Myxococcus xanthus)
B4: I168C + A170C + I311M + L332T + M365V: MxPPO (SEQ ID NO: 3) variant (protein)
chain: B1 chain with A95R, A170C
modifications: Synthetic (Protoporphyrinogen IX oxidase (MxPPO) of Myxococcus xanthus)
B5: R95A + A170C + I311M + M365V: MxPPO (SEQ ID NO: 3) variant (protein)
chain: B1 chain with C168I, A170C, T332L
modifications: Synthetic (Protoporphyrinogen IX oxidase (MxPPO) of Myxococcus xanthus)
B6: R95A + I168C + L332T + M365I: MxPPO (SEQ ID NO: 3) variant (protein)
chain: B1 chain with M311I, V365I
modifications: Synthetic (Protoporphyrinogen IX oxidase (MxPPO) of Myxococcus xanthus)
B7: F209A: ApPPO1 (SEQ ID NO: 1) variant (protein)
chain: MPFTHLKPLNRLLGSPRARHPHVAPQAVSVTNTSTTRPGGRSSAPGIPGDAEYDVVIVGAGISGLTTAQALAKQYSDAVPRLLVTEARDCVGGNIITRRDGGYQWEEGPNSFQPSDAVLRAAVDAGVADRLVLGDPKAPRYVYWGGRLRATPSGPDVLTFDLLSLWGKLRAGLGAAGFKAPLPEREESVKEFVTRNLGEEVFQRLIEPACSGVYAGDPAKLSMKAAFGKVYDLEKGGGSIVGGVLALMKARKQKPPEPRPADLPPKPKGQTVGSFDKGLVTLPSAIAEELGDRVVTGWKLESIDRSGDRFQLTYDTPQGRKKVSARSVALTVPAYTAASLLESRFPKLGKALSSIYYPPVASVALSYPETAILPERLGSDGHLAGFGQLHPRTQGVTTLGTIYASSLFPGRVPEGKVLLLSYFGGATNTRVATMPHGEIVSQVDKDLRKMLIRSDAESPHTVNVTVWPRAIPQFNVGHTDLIQEAKDDLASQGWQGLHLGGNYVAGVALGKCMEAGYKQAAELASHVKSLAT
modifications: Synthetic (Protoporphyrinogen IX oxidase (ApPPO1) of Auxenochlorella protothecoides)
B8: V360M: ApPPO1 (SEQ ID NO: 1) variant (protein)
chain: B7 chain with A209F, V360M
modifications: Synthetic (Protoporphyrinogen IX oxidase (ApPPO1) of Auxenochlorella protothecoides)
B9: F386V: ApPPO1 (SEQ ID NO: 1) variant (protein)
chain: B7 chain with A209F, F386V
modifications: Synthetic (Protoporphyrinogen IX oxidase (ApPPO1) of Auxenochlorella protothecoides)
B10: Y422M: ApPPO1 (SEQ ID NO: 1) variant (protein)
chain: B7 chain with A209F, Y422M
modifications: Synthetic (Protoporphyrinogen IX oxidase (ApPPO1) of Auxenochlorella protothecoides)
B11: V213C: ApPPO1 (SEQ ID NO: 1) variant (protein)
chain: B7 chain with A209F, V213C
modifications: Synthetic (Protoporphyrinogen IX oxidase (ApPPO1) of Auxenochlorella protothecoides)
B12: L389T: ApPPO1 (SEQ ID NO: 1) variant (protein)
chain: B7 chain with A209F, L389T
modifications: Synthetic (Protoporphyrinogen IX oxidase (ApPPO1) of Auxenochlorella protothecoides)
B13: Y422I: ApPPO1 (SEQ ID NO: 1) variant (protein)
chain: B7 chain with A209F, Y422I
modifications: Synthetic (Protoporphyrinogen IX oxidase (ApPPO1) of Auxenochlorella protothecoides)
B14: I402T: ApPPO1 (SEQ ID NO: 1) variant (protein)
chain: B7 chain with A209F, I402T
modifications: Synthetic (Protoporphyrinogen IX oxidase (ApPPO1) of Auxenochlorella protothecoides)
B15: A215C: ApPPO1 (SEQ ID NO: 1) variant (protein)
chain: B7 chain with A209F, A215C
modifications: Synthetic (Protoporphyrinogen IX oxidase (ApPPO1) of Auxenochlorella protothecoides)

Experiments:
MxPPO [1] = assay: Herbicide tolerance test of MxPPO wild type and variants in PPO-deficient E. coli BT3(ΔPPO), growth on herbicide-containing LB agar; type: cell-based, Myxococcus xanthus; settings: relative to MxPPO WT, dark; for Herbicide tolerance, flumioxazin: up to 1000 μM (FIGS. 21-22); for Herbicide tolerance, sulfentrazone: up to 4000 μM (FIGS. 23-24)
Description: Then, the extent of tolerance was evaluated.

MxPPO [2] = assay: PPO enzyme activity of purified MBP-fused MxPPO wild type and variants; type: biochemical, Myxococcus xanthus; settings: PPO enzyme activity of purified MxPPO protein, relative to wild type
ApPPO1 = assay: PPO enzyme activity of purified MBP-fused ApPPO1 wild type and variants; type: biochemical, Auxenochlorella protothecoides; settings: PPO enzyme activity relative to ApPPO1 wild type; MBP-fused protein
Description: Thus, PPO proteins of wild type and variants were expressed as fused to MBP and were used for experiments.
The following process for purification of PPO protein was performed in a 4° C. cold room. […] The column was washed with 3 column volumes of buffer and the presence of protein in the washing solution was examined. When the protein was no longer detected, the washing procedure was terminated. Then, the MBP-PPO protein was eluted with approximately 2 column volumes of buffer containing 20 mM maltose. The protein concentration of each eluent was determined and the elution was stopped when the protein was no longer detected. Ten microliter of each fraction was investigated for protein quantification and SDS-PAGE analysis. The highly pure fractions of PPO protein variants were used for the enzyme assay.
Since protoporphyrinogen IX, a substrate of PPO protein, was not commercially available, it was chemically synthesized in the laboratory. Overall process was performed in dark under nitrogen stream. […] of protoporphyrin IX was dissolved in 20 ml of 20% (v/v) EtOH, and stirred under dark condition for 30 minutes. The obtained protoporphyrin IX solution was put into a 15 ml screw tube in an amount of 800 μl, and flushed with nitrogen gas for 5 minutes. To this, 1.5 g of sodium amalgam was added and vigorously shaken for 2 minutes. The lid was opened to exhaust hydrogen gas in the tube. Thereafter, the lid was closed and incubated for 3 minutes. The protoporphyrinogen IX solution was filtered using syringe and cellulose membrane filter. To 600 μl of the obtained protoporphyrinogen IX solution, approximately 300 μl of 2M MOPS [3-(N-morpholino) propanesulfonic acid] was added to adjust pH to 8.0. To determine the enzyme activity of PPO protein, a reaction mixture was prepared with the following composition (based on 10 ml): 50 mM Tris-Cl (pH 8.0); 50 mM NaCl; 0.04% (v/v) Tween 20; 40 mM glucose (0.072 g); 5 units glucose oxidase (16.6 mg); and 10 units catalase (1 μl).
Hundred and eighty microliters of a reaction mixture […] were placed in 96 well plates and 20 μl of purified PPO proteins were added. After 50 μl of the mineral oil was layered, the reaction was initiated by adding the substrate, protoporphyrinogen IX solution, to a final concentration of 50 μM. The reaction proceeded at room temperature for 30 min and the fluorescence of protoporphyrin IX was measured using Microplate reader (Sense, Hidex) (excitation: 405 nm; emission: 633 nm). To calculate the PPO enzyme activity, the protoporphyrinogen IX solution was kept open in the air overnight to oxidize the solution. To this, 2.7 N HCl was added, and the absorbance at 408 nm was measured. A standard curve was generated using standard protoporphyrin IX, and PPO activity was measured by calibration of protoporphyrin IX using the standard curve of protoporphyrin IX.
Activities of variants were presented relatively compared to that of wild type.

Molecule	Herbicide tolerance, flumioxazin (MxPPO [1])	Herbicide tolerance, sulfentrazone (MxPPO [1])	Activity (%) (MxPPO [2])	Activity (%) (ApPPO1)
B1	+ (1-9 fold higher tolerance)	+++ (100-999 fold higher tolerance)	12%	
B2	+ (1-9 fold higher tolerance)	+++ (100-999 fold higher tolerance)	8%	
B3	+ (1-9 fold higher tolerance)	+++ (100-999 fold higher tolerance)	37%	
B4	+ (1-9 fold higher tolerance)	++ (10-99 fold higher tolerance)	20%	
B5	+ (1-9 fold higher tolerance)	+ (1-9 fold higher tolerance)	31%	
B6	+ (1-9 fold higher tolerance)	++ (10-99 fold higher tolerance)	34%	
B7				78%
B8				59%
B9				86%
B10				93%
B11				85%
B12				11%
B13				91%
B14				16%
B15				89%
